Results from the supplement of paper PMC12455559.
± gives the standard deviation of the averaged measurements.

What was measured:
[1] = purified protein yield per well (BCA); higher = higher soluble expression
Summary of the method: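 Candidate enzymes were produced in E. coli C41(DE3) grown in 2 mL autoinduction cultures containing 100 µg/mL kanamycin, first at 37 °C for 2 h and then at 18 °C for 40 h. After cell lysis, protein was captured on Ni-charged magnetic beads and freed by SUMO protease cleavage on an OT-2 robot. Purified protein yield per well was read with the Pierce Rapid Gold BCA kit. Values under 25 ug (0.1 mg/mL) fall below the detection threshold.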

[2] = melting temperature (DSF); higher = more thermostable
Summary of the method: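 On a Bio-Rad CFX96, fluorescence of 45 μL enzyme (0 to 0.3 mg/mL) mixed with 5 μL 5X Sypro Orange in sealed PCR plates was followed from 25 °C through 250 cycles of 0.3 °C, with a 0.3 °C/s ramp. The enzymes had been expressed in E. coli C41(DE3), taken up on nickel beads and released by SUMO protease. Melting temperature, measured by differential scanning fluorimetry, is the value given.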

[3] = PET hydrolysis, aromatic products released after 48 h (umol product/mg enzyme); higher = more PET depolymerization activity
Summary of the method: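 PET hydrolysis activity was taken as the aromatic product in the supernatant and expressed per mg enzyme. This product was measured by absorbance at 260 and 280 nm against buffer blanks. Each reaction held 5 μg (50 μL) of tagless, SUMO-cleaved candidate enzyme purified on nickel beads, plus 3.5 mg amorphous PET film or crystalline PET powder in 450 μL buffer: 50 mM NaCitrate (pH 4.5, 5.5), 50 mM NaPhosphate (pH 6.5, 7.5) or glycine (pH 8.5). Plates were sealed and left 48 h at 40 or 60 °C without shaking.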

[4] = substrate: aFilm, 40 °C, pH 4.5
[5] = substrate: aFilm, 40 °C, pH 5.5
[6] = substrate: aFilm, 40 °C, pH 6.5
[7] = substrate: aFilm, 40 °C, pH 7.5
[8] = substrate: aFilm, 60 °C, pH 4.5
[9] = substrate: aFilm, 60 °C, pH 5.5
[10] = substrate: aFilm, 60 °C, pH 6.5
[11] = substrate: aFilm, 60 °C, pH 7.5
[12] = substrate: cryPow, 40 °C, pH 4.5
[13] = substrate: cryPow, 40 °C, pH 5.5
[14] = substrate: cryPow, 40 °C, pH 6.5
[15] = substrate: cryPow, 40 °C, pH 7.5
[16] = substrate: cryPow, 60 °C, pH 4.5
[17] = substrate: cryPow, 60 °C, pH 5.5
[18] = substrate: cryPow, 60 °C, pH 6.5
[19] = substrate: cryPow, 60 °C, pH 7.5

Row | Sequence | purified protein yield per well [1] | melting temperature [2] | PET hydrolysis [3, 4] | PET hydrolysis [3, 5] | PET hydrolysis [3, 6] | PET hydrolysis [3, 7] | PET hydrolysis [3, 8] | PET hydrolysis [3, 9] | PET hydrolysis [3, 10] | PET hydrolysis [3, 11] | PET hydrolysis [3, 12] | PET hydrolysis [3, 13] | PET hydrolysis [3, 14] | PET hydrolysis [3, 15] | PET hydrolysis [3, 16] | PET hydrolysis [3, 17] | PET hydrolysis [3, 18] | PET hydrolysis [3, 19] | PET hydrolysis ([3]; substrate: cryPow, 40 °C, pH 8.5)
1 | MMPSADAASTLADNPYQRGPDPTVASVAAAYGTFATAQLTVPPGNGFNGGSIYYPTDTSQTYGAVAIVPGYTARFADEEAWMGPRLASFGFVVIGVETNSRNDFDTARGTQLLAALDYLTNSSAVRDRVDRNRLAVIGHSMGGGGALVAADQRPSLKAAIGLAPYKPSGNLANNRVPTLILSGQNDTVVTPSYLDGLYPTLPAATPGAYILLSGADHLFFTRPNDIEMRSQIPWLKTFVDNDTRYSQFLCPTLKDTTSVARSTAKCSLIPSGGNPSTPPSSSSPSPSSPASSSPPPSGAKHIVGAQSGRCVDVPNSSRTNGTRVQLYDCHSGTNQQWTYTSSRQLTVYGSMCLDAAGSGNGAAVQIYSCNGQANQQWNVNSNGTISGVQSGRCLDVWGTNNGQQIQLYDCHGQANQRFSLS [TEP054] | 297 µg | 60.7 C | 3 | 8 ± 1.4 | 9.5 ± 0.71 | < 3 | < 3 | < 3 | < 3 | < 3 | 14 ± 4.2 | 24 ± 2.8 | 35 | 18 ± 2.8 | 2 ± 2.8 | 7 ± 1.4 | 7.5 ± 2.1 | 1.5 ± 2.1 | 
2 | MNAVGPTTPPTTTPPTTPAGDNPYQRGPDPTVASVAAQYGPFATAQITVPPGNGFNGGFIYYPTDSSHTYGAVAIVPGYTALFADEEAWMGPRLASFGFVVIGVETNSRTDYDTARGTQLLAALDYLTNSSAVRDRVDRNRLAVIGHSMGGGGALYAATQRPSLKAAIGLAPFKPSGNLASDTVPTMIIGGINDTTVTPSYLDGLYPTLPAATPGAYLQLANADHLYFTRPNDIEMRSQIEWLKIFVDNDTRYTPFLCPSIKDTTGIVRSNVKCSTIPGGGSTSPPTTTPPPAGSNRIVGAQSGRCVDVPGASQTNGTRVQLYDCNGQPNQAWTLTASKQLTVYGSRCLDAAGSGNGSAVQIYSCNGQANQQWNVNANGTITGVQSGRCLDVWGTGNGQQVQIYDCNGQANQRFGLS [ESM052] | 248 µg | 61.6 C | 4.5 ± 0.71 | 7.5 ± 0.71 | < 3 | < 3 | < 3 | < 3 | < 3 | < 3 | 13.5 ± 2.1 | 28.5 ± 2.1 | 36.5 ± 3.5 | 17.5 ± 7.8 | < 3 | 7.5 ± 0.71 | 5.5 ± 0.71 | < 3 | 
3 | MPPPDSGAAAHERVHAEPSDPATVGSAGGNPFARGPDPTLASVAAEFGPFATTQLSVPPGHGFNGGYVYYPTDASPTFGAVAIVPGYTALFADEEAWMGPRLASFGFVVIGIETNSREDWDRARGAQLLAALDYVTQHSTVRTRVDSSRLAVIGHSMGGGGAFAAATRRPSLKAVVGLAPYFPSGDLATVRVPTLIIGGQRDTTVTPSYLDDLYATLPTRTPSAYLMLADADHLFPTRPNPVEMRLLIPWLKIFVDRDTRYVRFLCPLADRSGIAQYRVTCPLVPPA [TEP003] | 152 µg | 67.6 C |  |  |  |  |  |  |  |  | < 3 | < 3 | < 3 | < 3 | < 3 | < 3 | < 3 | < 3 | 
4 | MPPPPPPPPPVQTVTVEPGYGFGGGTIYYPQESTGRLPVVAAVPGFTETQEAVAWYGPLLARRGNIVITIDTISPTNAPKTRADQALAAIDYVVTQSAVSDIADASRTAVMGHSMGGGASLFAALKRPTLKAIVPLAPWARTTDFSGVAVPTLIVGCENDGIAAVGTYAEPFYESIPATTPKAYLEMAGGNHYCTNSEDPVIAGYVSAWTDRFLKGDTTASSRLCPPSPVGPISEYRSNCPY [TEP189] | 153 µg | 67 C |  |  |  |  |  |  |  |  | < 3 | 8 | 56 | 62 | < 3 | < 3 | 23 | 22 | 
5 | MRPGRVCPDSCGCRPSSRRKDATIVQQLRNETIGSPSPHRAPRRFRPRLVRAGLAALLAAGGLFTAQSGSAGAAQNPYERGPAPTVSSIEAPRGPYAVSETRVSSLGVTGFGGGTLYYPTTTRDGTFGAVAISPGYGGTQSSISWLGPRLASQGFVVFTIDTLSTLDQPAGRGGQLLAALDYLTQRSSVRDRVDSGRLGVMGHSMGGGGSLEAAKSRPALQAAIPLTGWNLDKTWQELRTPTLVVGADGDTIAPVSSHSEPFYESLAGSLDKAYLELNGASHFTPNSSNTTIAKYSVSWLKRFIDNDLRYEQFLCPLPRPGATIEEYRGNCPHTS [TEP099] | 68.5 µg | 50.2 C |  |  |  |  |  |  |  |  | < 3 | < 3 | < 3 | < 3 | < 3 | < 3 | < 3 | < 3 | 
6 | NPYERGPAPTTSSIEASRGSFATSTTTVSRLAVSGFGGGTIYYPTSTASGTFGAVSIAPGFTATQSSMAWLGPRLASQGFVVFTIDTITTSDQPDSRGRQLLSSLDYLTQQSSVRSRIDSSRLGVVGHSMGGGGTLEAARSRPSLQAAVPLTGWNLTKSWSTVRVPTLVVGAQADTVAPVASHSIPFYTSLPSSLDKAYLELRGASHFAPNSANTTIAKYTLSWLKRFIDDDTRYEQFLCPIPGTSTTISDYRGNCPHAG [ESM140] | 187 µg | 51.7 C |  |  |  |  |  |  |  |  | < 3 | 5 | 22 | 33 | < 3 | 4 | 8 | 9 | 
7 | NPYERGPDPTTASIEASRGSFATSTVTVSRLAVSGFGGGTIYYPTTTTAGTFGAISIAPGFTATQSSMAWLGPRLASQGFVVFTIDTITTSDQPDSRGRQLLASLDYLTQQSSVRSRIDSSRLGVVGHSMGGGGTLEAARSRPSLQAAVPLTGWNLTKNWSTLRVPTLVVGAQSDTIAPVASHSIPFYTSLPSTLDRAYLELRGASHFAPNTSNTTIAKYTLSWLKRFIDNDTRYEQFLCPIPSSSLSISDYRGNCPHNG [ESM167] | 254 µg | 55.3 C | < 3 | 4 | 6.5 ± 0.71 | 7.5 ± 0.71 | < 3 | < 3 | 2 ± 2.8 | 2.5 ± 3.5 | 2 ± 2.8 | 12.5 ± 2.1 | 21 ± 4.2 | 35.5 ± 0.71 | < 3 | 10.5 ± 2.1 | 20 ± 1.4 | 26 ± 1.4 | 
8 | QAPDRTALARTGPYQVAYYTQLPPAAEFSAATLFFPANKAQAFGGVVIAPGYTEKQVNVQWWGYHLASHGYAVLVLDTNDPEEYPDRRADALMAGVAVLRGENTRMGSTLRGKILEGRIALMGHSMGGGGTLLAANGHSDQLKTIIPFTPWLPGADFSAVSVPTLVLAGEIDRIAAVKDHAWPHYESLTGAVPRMYLEVKGGNHYIANSMTDREDRNPNIDVHDLVGSMVVAWLKTFLDDDESYRELVFGDLPEADRVRISRLEFVE [TEP006] | 215 µg | 53.5 C | < 3 | < 3 | < 3 | < 3 | < 3 | < 3 | < 3 | < 3 | < 3 | < 3 | < 3 | < 3 | < 3 | < 3 | < 3 | < 3 | 
9 | QDNSQGRYRPEGRQIGVAAGREFGERIYEVRTYETNPGIAEFADVMVFYPLTLSFDRPNGAIAFSPGFRAAADNYEWWGPALASLGYNVFILNTNEPTDDLDARADALAALVDFIKAENANPDSPVANKIDEEKIALMGHSMGGGAALAAADRLGDAVGAVIPLALYCCNPGGSFEGDYGSLSAAALVIASAEDTVAPPEAHARLLYDSLGSENKIYMEFAAGDHMFPANGGPELATMGRFTLAFLKAYLDGVAGLEQHVTSPSDEYAERFSTYLAP [TEP035] | 51.6 µg | 52.3 C |  |  |  |  |  |  |  |  | < 3 | < 3 | < 3 | < 3 |  |  |  |  | 
10 | QPTLESLGNPGPYQVAYYDQLPEVDEYGAATLYFPANRGTDFGGVAIAPGFIEQQENIEWWGRHLASYGFAVLVLDTNNPRDDPQVRSEALLAALDVIRGEGARSGSPIRGKILNDRMAVMGHSMGGGGTLLAANRASDQLKAIIPFTPWLPNADFSSVAVPTLVLAGEVDRIASVAEHAWPHFQTLPEGIPRMYVEIAGGNHFIANSTTDQERLNPNIDVHDLVGALGVAWLKYFVDGDEDYRDLIYGELPAEQRARLSRFEFVQ [TEP107] | 57.2 µg | 44.5 C |  |  |  |  |  |  |  |  | < 3 | < 3 | < 3 | < 3 | < 3 | < 3 | < 3 | < 3 | 
11 | QSAEASPPHGPDPTEESITAPRGPFEIDQKTVSRASVRGFGGGTIYYPTDTSEGTFSAVAIAPGYTAGQESLAWLGPRLASQGFVVFTIDTLTRYDQPDSRSRQLLAALDHLTDDSDVADRVDPARRGVMGHSMGGGGSLQAALDDPDLKAAIPMTPWHTTKDFSGVRTPTLIIGAQNDTVAPVSQHAKPFYESLPDDPGKAYLELAGASHFAPNVDNTTIARYSIAWLKRFLDDDTRYEQFLCPPPPDPAISDHQSTCPY [TEP105] | 207 µg | 61.6 C | < 3 | < 3 | 5 ± 1.4 | 7.5 ± 0.71 | < 3 | < 3 | < 3 | 10 ± 4.2 | < 3 | 15.5 ± 0.71 | 46.5 ± 0.71 | 59.5 ± 0.71 | < 3 | 10.5 ± 0.71 | 101 ± 1.4 | 118 ± 13 | 
12 | QSPSAAANPYERGPDPTVSSVAAQRGTFATAEVTVPPGNGFNGGKIYYPTDTSLGTWGAVAAVPGYTARWSAEGAWMGPWLASFGFVVIGIDTNSPNDFDTARGTQLLAALDYLTQKSPVRDRVDPSRLGVIGHSMGGGGAISAAERRPSLKAALPLAPFSPSQNLSSLRVPTMIMGARDDGTVTPSYLDGLYGGMPATTQSAYIELTGGGHGFPTWGNSNVTRRTIPWLKIFLDNDTRYTQFLCPSPADRTGVSRSQTKCPYVPPGTTTPPPSGGQIVGAGSGRCLDVPNASQTNGTQLQLWDCSANANQKWARTGTGELRVYGNKCLDAEGAGTSPGTRVIIWDCHGGQNQRWNVNTSGTITRADPVCAWTRKATAPGTAPRRSWGTAMAGPASAGPSGSED [TEP122] | 186 µg | 54.1 C |  |  |  |  |  |  |  |  | < 3 | < 3 | < 3 | < 3 | < 3 | < 3 | < 3 | < 3 | 
13 | QSSNPYQRGPAPTERSIEASRGPFAVAQTTVSRLSATGFGGGTIYYPTDTSQGRFGGVAISPGFTALQSSIAWLGPRIASQGFIVFTIDTITTLDQPAQRGDQLLAALDYLVQRSPAAVRDRLDPTRLAVMGHSMGGGGTLEAAKKRPSLKAAIPLTGWNLDTIWNDLRVPTLVVGAQLDLIAPILTFSLPFYNTIPASTEKVYLELAGASHFAPNLPDTNIAKYSIAWLKRWVDNDTRYTQFLCPGPRFELAISNYMSSCPM [DP056] | 36 µg | 56.2 C |  |  |  |  |  |  |  |  |  | < 3 | < 3 | 4 |  |  |  |  | 6
